Test results as given in publication PMC3553982 (Nucleic Acids Research, 2012).
Each block holds one molecule with its values, some of them ahead of it.

What was measured:
Rim1ΔC18 (S. cerevisiae) = Rim1ΔC18 (S. cerevisiae) (UniProt P32445); experiment: pull-down
[1] = target: Human mitochondrial SSB (HsmtSSB) (human) (UniProt Q04837); experiment: pull-down
[2] = target: 5-FAM labeled Rim1ΔC18 (FAM-Rim1ΔC18) (S. cerevisiae) (UniProt P32445); experiment: fluorescence polarisation
[3] = target: 5-FAM labeled Rim1 (FAM-Rim1) (S. cerevisiae) (UniProt P32445); experiment: fluorescence polarisation
Rim1 = target: T1, Rim1 (Saccharomyces cerevisiae, UniProt P32445 18-135); experiment: fluorescence anisotropy
T1 sequence: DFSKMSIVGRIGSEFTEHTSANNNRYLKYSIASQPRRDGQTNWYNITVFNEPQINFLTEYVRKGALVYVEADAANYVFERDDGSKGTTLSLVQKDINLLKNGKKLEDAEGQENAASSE

Rim1ΔC18 = target: T2, Rim1ΔC18 (Saccharomyces cerevisiae, UniProt P32445 18-117, del118-135); experiment: fluorescence anisotropy
T2 sequence: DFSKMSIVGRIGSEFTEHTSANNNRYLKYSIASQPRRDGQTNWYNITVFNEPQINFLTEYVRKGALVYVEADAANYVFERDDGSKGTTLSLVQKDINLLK

SEC-MALS = target: the molecule itself; experiment: SEC-MALS

Human mitochondrial SSB (HsmtSSB) (human), sequence (Q04837 17-148): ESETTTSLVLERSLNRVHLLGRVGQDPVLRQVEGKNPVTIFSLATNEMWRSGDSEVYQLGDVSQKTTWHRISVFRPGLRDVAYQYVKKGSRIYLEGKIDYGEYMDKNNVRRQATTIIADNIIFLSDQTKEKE

- relative amount of Pif1 co-precipitated (Pif1 bound to Rim1 taken as 1) (Rim1ΔC18 (S. cerevisiae)): 0.45
- relative amount of Pif1 co-precipitated (Pif1 bound to Rim1 taken as 1) [1]: 0.63
- Kd [2]: 2500 nM
- Kd [3]: 690 nM
Molecule: Pif1 (recombinant, nuclear form) (from UniProt P07271 46-859) (enzyme)

B1: 3'F-T70 (ssDNA)
DNA: TTTTTTTTTTTTTTTTTTTTTTTTTTTTTTTTTTTTTTTTTTTTTTTTTTTTTTTTTTTTTTTTTTTTTT
- Kd (Rim1): < 1 nM
- Kd (Rim1ΔC18): < 1 nM

B2: Rim1ΔC18 (domain or fragment, S. cerevisiae, UniProt P32445 18-117, looked up)
chain: DFSKMSIVGRIGSEFTEHTSANNNRYLKYSIASQPRRDGQTNWYNITVFNEPQINFLTEYVRKGALVYVEADAANYVFERDDGSKGTTLSLVQKDINLLK
- stoichiometry N (SEC-MALS): 4
